How the values were obtained:
[1] = target: human TREM2 on primary cells (human) (UniProt Q9NZC2); experiment: FACS, primary hMAC; isotype control
[2] = target: human TREM2 on primary cells (human) (UniProt Q9NZC2); experiment: FACS, primary hDC; isotype control
[3] = target: recombinant human TREM2-DAP12 fusion protein expressed on cells (human); experiment: FACS, HEKhT2 cells; isotype control
[4] = target: TREM2 protein of the 'Percent APOE binding' column of Table 9B; experiment: TREM2 binding to APOE with isotype control
[5] = target: mouse TREM2 on cells (mouse) (UniProt Q99NH8); experiment: FACS, BWZmT2 cells; isotype control
[6] = target: mouse TREM2 on cells (mouse) (UniProt Q99NH8); experiment: FACS, WT mouse macrophages; isotype control
[7] = target: TREM2 protein of the 'Percent APOE binding' column of Table 9B; experiment: TREM2 binding to APOE with antibody
[8] = target: mouse TREM2 on cells (mouse) (UniProt Q99NH8); experiment: FACS, WT mouse macrophages

human TREM2 on primary cells (human), sequence (Q9NZC2 19-230): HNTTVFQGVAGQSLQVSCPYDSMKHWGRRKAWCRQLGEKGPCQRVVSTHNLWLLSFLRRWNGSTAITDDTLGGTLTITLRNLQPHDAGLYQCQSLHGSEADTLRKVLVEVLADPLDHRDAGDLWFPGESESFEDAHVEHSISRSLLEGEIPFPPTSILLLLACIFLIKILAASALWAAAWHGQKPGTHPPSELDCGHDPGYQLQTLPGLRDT
mouse TREM2 on cells (mouse), sequence (Q99NH8 19-227 limits assumed): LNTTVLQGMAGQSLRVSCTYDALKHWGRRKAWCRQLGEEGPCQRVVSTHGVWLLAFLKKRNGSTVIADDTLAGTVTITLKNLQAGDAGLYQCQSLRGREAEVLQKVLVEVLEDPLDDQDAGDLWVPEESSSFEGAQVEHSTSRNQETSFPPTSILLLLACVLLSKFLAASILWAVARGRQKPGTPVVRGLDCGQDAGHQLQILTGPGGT
recombinant human TREM2-DAP12 fusion protein expressed on cells (human), sequence (chain, as listed by the source limits assumed, form in doubt): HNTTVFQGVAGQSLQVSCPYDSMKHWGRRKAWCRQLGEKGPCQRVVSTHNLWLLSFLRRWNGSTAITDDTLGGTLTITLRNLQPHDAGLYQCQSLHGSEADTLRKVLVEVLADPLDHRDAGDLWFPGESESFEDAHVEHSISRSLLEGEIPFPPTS

% Positive hMAC [1] | % Positive hDC [2] | MFI HEKhT2 [3] | Percent APOE binding [4] | MFI BWZmT2 [5] | % Positive WT BMMACS [6] | Percent APOE binding [7] | % Positive WT BMMACS [8] | Substance
0.9% | 0.3% | 35 MFI | 102% |  |  |  |  | rat IgG2b isotype control antibody
5.3% | 6.1% | 13 MFI |  |  |  |  |  | mouse IgG2b isotype control antibody
2.7% | 4.9% | 16.3 MFI | 90.8% | 278 MFI | 0.574% |  |  | mouse IgG1 isotype control antibody
10.4% | 6.2% | 33 MFI |  |  |  |  |  | rat IgG2a isotype control antibody
7.9% | 7.3% | 40.3 MFI |  |  |  |  |  | mouse IgG2a isotype control antibody
63.7% | 14.9% | 124 MFI |  |  |  |  |  | mouse IgM isotype control antibody
19.6% | 8.7% | 544 MFI |  |  |  |  |  | rat IgG1 isotype control antibody
 |  |  |  |  |  | 106% | 13.1% | commercial anti-TREM2 antibody (R&D Cat #F7E57291)
